Here are results for eight molecules from PMC4002122 (Chemical Research in Toxicology, 2014).

In one data set the target is T1, UGT1A9 (Homo sapiens, UniProt O60656).
T1 sequence (O60656 26-530): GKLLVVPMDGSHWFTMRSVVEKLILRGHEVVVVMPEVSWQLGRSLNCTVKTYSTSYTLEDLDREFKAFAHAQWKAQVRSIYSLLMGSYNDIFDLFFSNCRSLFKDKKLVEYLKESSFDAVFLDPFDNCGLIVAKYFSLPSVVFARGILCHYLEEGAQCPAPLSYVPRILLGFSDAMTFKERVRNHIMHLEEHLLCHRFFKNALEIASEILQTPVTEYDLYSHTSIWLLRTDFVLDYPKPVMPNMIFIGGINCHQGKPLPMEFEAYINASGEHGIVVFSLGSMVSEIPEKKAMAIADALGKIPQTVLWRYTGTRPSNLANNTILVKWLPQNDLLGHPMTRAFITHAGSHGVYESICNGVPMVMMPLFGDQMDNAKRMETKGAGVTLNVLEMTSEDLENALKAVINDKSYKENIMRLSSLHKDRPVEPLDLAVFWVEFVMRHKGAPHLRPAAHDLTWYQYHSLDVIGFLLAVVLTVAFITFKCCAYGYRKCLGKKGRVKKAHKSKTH
Particulars: cited from earlier work; for Km: affinity of UGT1A9 for tRes and natural analogs.

The next data set deals with T2, UGT1A1 (Homo sapiens, UniProt P22309).
T2 sequence (P22309 26-533): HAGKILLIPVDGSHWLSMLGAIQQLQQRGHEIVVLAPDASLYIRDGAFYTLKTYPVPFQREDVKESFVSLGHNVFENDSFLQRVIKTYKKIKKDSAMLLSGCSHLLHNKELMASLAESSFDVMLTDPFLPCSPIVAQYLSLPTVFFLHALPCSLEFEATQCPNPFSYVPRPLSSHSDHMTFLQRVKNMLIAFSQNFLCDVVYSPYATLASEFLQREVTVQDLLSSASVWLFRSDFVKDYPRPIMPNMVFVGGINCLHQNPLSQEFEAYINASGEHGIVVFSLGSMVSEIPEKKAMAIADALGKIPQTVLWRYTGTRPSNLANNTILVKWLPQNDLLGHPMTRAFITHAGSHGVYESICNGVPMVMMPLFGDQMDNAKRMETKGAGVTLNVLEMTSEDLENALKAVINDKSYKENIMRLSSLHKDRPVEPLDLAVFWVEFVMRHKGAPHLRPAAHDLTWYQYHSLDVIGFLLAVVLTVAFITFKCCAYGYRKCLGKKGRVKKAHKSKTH
Particulars: tRes-3-O-glucuronidation; cited from earlier work.

Substrate in data set [1]: COc1ccc(/C=C(/C(=O)O)c2cc(OC)c(OC)c(OC)c2)cc1O
Put plainly: Steady state kinetics of glucuronidation by recombinant UGT1A9. The following applies: other: NI-12a-O-gluc formation, UDP-GlcUA 3 mM, 60 min, 37 °C. Type of data set: in vitro ADME, human.

Substrate in data set [2]: COc1ccc(/C=C(/C(=O)O)c2cc(OC)c(OC)c(OC)c2)cc1O
Put plainly: Steady state kinetics of glucuronidation by recombinant UGT1A8. Type of data set: in vitro ADME, human. The following applies: other: NI-12a-O-gluc formation, UDP-GlcUA 3 mM, 60 min, 37 °C.

Substrate in data set [3]: COc1ccc(/C=C(/C(=O)O)c2cc(OC)c(OC)c(OC)c2)cc1O
Put plainly: Steady state kinetics of glucuronidation by recombinant UGT1A7. Type of data set: in vitro ADME, human. The following applies: other: NI-12a-O-gluc formation, UDP-GlcUA 3 mM, 60 min, 37 °C.

Substrate in data set [4]: COc1ccc(C=Cc2cc(OC)cc(OC)c2/C=N/O)cc1
Put plainly: Steady state kinetics of glucuronidation by recombinant UGT1A10. The data set is classed as in vitro ADME, human. The following applies: other: NI-ST-05–N–O-gluc formation; Hill equation (S50).

Substrate in data set [5]: COc1ccc(/C=C(/C(=O)O)c2cc(OC)c(OC)c(OC)c2)cc1O
The description is as above. Type of data set: in vitro ADME, human. The following applies: other: NI-12a-O-gluc formation; UDP-GlcUA 3 mM, 60 min, 37 °C.

Substrate in data set [6]: COc1ccc(C=Cc2cc(OC)cc(OC)c2/C=N/O)cc1
Put plainly: Steady state kinetics of glucuronidation by recombinant UGT1A1. Particulars: other: NI-ST-05–N–O-gluc formation; estimated based on an incomplete data set. Type of data set: in vitro ADME, human.

On to `CC(C)/C=C/c1c(O)cc(/C=C/c2ccc(O)cc2)cc1O` [tA3], for which the Michaelis constant (Km) on UGT1A9 is 21 µM.

On to `Oc1ccc(/C=C/c2cc(O)cc(O)c2)cc1` [tRes, trans-3,5,4′-trihydroxystilbene], for which the Km on UGT1A9 is 2.5 µM. Moreover, the Vmax at UGT1A9 (tRes-3-O-glucuronide formation) is given as 2.5 nmol/mg/min; at UGT1A1 it was 31 nmol/mg/min.

Take trans-arachidin-1 [tA1]: the Michaelis-Menten constant (Km) on UGT1A9 was 190 µM.

B1: UGT1A9 (Homo sapiens) (protein)
chain: T1 sequence (O60656 26-530)
Turning to B1, in data set [1], the Km was 240 ± 40 µM, the Vmax is 0.0083 µmol/min/mg and the Vmax/Km came to 35 µL/min/mg.

B2: UGT1A8 (Homo sapiens) (protein)
chain: GKLLVVPMDGSHWFTMQSVVEKLILRGHEVVVVMPEVSWQLGKSLNCTVKTYSTSYTLEDLDREFMDFADAQWKAQVRSLFSLFLSSSNGFFNLFFSHCRSLFNDRKLVEYLKESSFDAVFLDPFDACGLIVAKYFSLPSVVFARGIACHYLEEGAQCPAPLSYVPRILLGFSDAMTFKERVRNHIMHLEEHLFCQYFSKNALEIASEILQTPVTAYDLYSHTSIWLLRTDFVLDYPKPVMPNMIFIGGINCHQGKPLPMEFEAYINASGEHGIVVFSLGSMVSEIPEKKAMAIADALGKIPQTVLWRYTGTRPSNLANNTILVKWLPQNDLLGHPMTRAFITHAGSHGVYESICNGVPMVMMPLFGDQMDNAKRMETKGAGVTLNVLEMTSEDLENALKAVINDKSYKENIMRLSSLHKDRPVEPLDLAVFWVEFVMRHKGAPHLRPAAHDLTWYQYHSLDVIGFLLAVVLTVAFITFKCCAYGYRKCLGKKGRVKKAHKSKTH
For the molecule B2, in data set [2], the Michaelis-Menten constant (Km) came out at 240 ± 76 µM, the Vmax came out at 6.0 ± 1.3 nmol/mg/min and the Vmax/Km worked out at 25 µL/min/mg.

B3: UGT1A7 (Homo sapiens) (protein)
chain: GKLLVVPMDGSHWFTMQSVVEKLILRGHEVVVVMPEVSWQLGRSLNCTVKTYSTSYTLEDQDREFMVFADARWTAPLRSAFSLLTSSSNGIFDLFFSNCRSLFNDRKLVEYLKESCFDAVFLDPFDACGLIVAKYFSLPSVVFARGIFCHYLEEGAQCPAPLSYVPRLLLGFSDAMTFKERVWNHIMHLEEHLFCPYFFKNVLEIASEILQTPVTAYDLYSHTSIWLLRTDFVLEYPKPVMPNMIFIGGINCHQGKPVPMEFEAYINASGEHGIVVFSLGSMVSEIPEKKAMAIADALGKIPQTVLWRYTGTRPSNLANNTILVKWLPQNDLLGHPMTRAFITHAGSHGVYESICNGVPMVMMPLFGDQMDNAKRMETKGAGVTLNVLEMTSEDLENALKAVINDKSYKENIMRLSSLHKDRPVEPLDLAVFWVEFVMRHKGAPHLRPAAHDLTWYQYHSLDVIGFLLAVVLTVAFITFKCCAYGYRKCLGKKGRVKKAHKSKTH
In the case of B3, in data set [3], the Km was 62 ± 43 µM, the Vmax is reported as 2.2 ± 0.77 nmol/mg/min and the Vmax/Km came out at 35 µL/min/mg.

B4: UGT1A10 (Homo sapiens) (protein)
chain: GKLLVVPMDGSHWFTMQSVVEKLILRGHEVVVVMPEVSWQLERSLNCTVKTYSTSYTLEDQNREFMVFAHAQWKAQAQSIFSLLMSSSSGFLDLFFSHCRSLFNDRKLVEYLKESSFDAVFLDPFDTCGLIVAKYFSLPSVVFTRGIFCHHLEEGAQCPAPLSYVPNDLLGFSDAMTFKERVWNHIVHLEDHLFCQYLFRNALEIASEILQTPVTAYDLYSHTSIWLLRTDFVLDYPKPVMPNMIFIGGINCHQGKPLPMEFEAYINASGEHGIVVFSLGSMVSEIPEKKAMAIADALGKIPQTVLWRYTGTRPSNLANNTILVKWLPQNDLLGHPMTRAFITHAGSHGVYESICNGVPMVMMPLFGDQMDNAKRMETKGAGVTLNVLEMTSEDLENALKAVINDKSYKENIMRLSSLHKDRPVEPLDLAVFWVEFVMRHKGAPHLRPAAHDLTWYQYHSLDVIGFLLAVVLTVAFITFKCCAYGYRKCLGKKGRVKKAHKSKTH
For the molecule B4, in data set [4], the K0.5 is 6.2 ± 0.35 µM, the Vmax turned out to be 0.00065 µmol/min/mg and the Vmax/Km was 105 µL/min/mg. Further, in data set [5], the Michaelis constant (Km) came out at 500 ± 75 µM, the Vmax is given as 3.5 ± 0.24 nmol/mg/min and the Vmax/Km worked out at 7 µL/min/mg.

B5: UGT1A1 (Homo sapiens) (protein)
chain: T2 sequence (P22309 26-533)
In the case of B5, the Vmax in data set [6] is 0.00021 ± 2e-05 µmol/min/mg.

The term Km denotes the substrate concentration at which the rate is half of its maximum. What is called Vmax is the top rate of the reaction or transport when substrate is in excess.
